Experimental data from the RNAGym collection of RNA variant scans (doi:10.7554/elife.80360).

B1: Hairpin Ribozyme (parent)
chain: GUCCUCUUUCACGUGCGCGUGAAAGAGAGAAGUGAACCAGAGAAACACACGUUGUGGUAUAUUACCUGGUA

Variants of: B1
Test: self-cleavage, relative activity (ratio to wild type); higher = more cleavage; co-transcriptional

**Q.** Which self-cleavage does the source give for GUCUUCCUUCACGUGCGCGUGAAAGAGAGAAGUGAACCAGAGAAACACACGUUGUGGUAUAUUACCUGGUA here?
**A.** 0.193

**Q.** Which self-cleavage does the source give for GUCUUCUUUCACGUGCGCGUGAAAGAGAGAAGUGAACCAGAGAAACACACGUAGUGGUAUAUUACCUGGUA here?
**A.** 0.358

**Q.** With GUCCACUUUCACGUGCGCGUGAAUGAGAGAAGUGAACCAGAGAAACACACGUUGUGGUAUAUUACCUGGUA as the variant, how does the self-cleavage read?
**A.** 0.273

**Q.** For GUCUUCUCUCACGUGCGCGUGAAAGAGAGAAGUGAACCAGAGAAACACACGUUGUGGUAUAUUACCUGGUA, which self-cleavage is on record?
**A.** 0.241

**Q.** For GUCUUCUUUCACGUGCGCGUAAAAGAGAGAAGUGAACCAGAGAAACACACGUUGUGGUAUAUUACCUGGUA, which self-cleavage is on record?
**A.** 0.389

**Q.** With GUCUUCUUUCACGUGCGCGUGAAAGAGAGAAAUGAACCAGAGAAACACACGUUGUGGUAUAUUACCUGGUA as the variant, how does the self-cleavage read?
**A.** 0.196

**Q.** For GUCCACUUUCACGUGCGCGUGACAGAGAGAAGUGAACCAGAGAAACACACGUUGUGGUAUAUUACCUGGUA, which self-cleavage is on record?
**A.** 0.436

**Q.** Which self-cleavage does the source give for GUCCACUUUCACGUGCGCGUGAUAGAGAGAAGUGAACCAGAGAAACACACGUUGUGGUAUAUUACCUGGUA here?
**A.** 0.323

**Q.** For GUCUUCUUUCACGUGCGCGUGAAAGAGUGAAGUGAACCAGAGAAACACACGUUGUGGUAUAUUACCUGGUA, which self-cleavage is on record?
**A.** 0.178

**Q.** For GUCUUCUUUCACGUGCGCGUGAAAGAGAGAAGUGAACCAGAGAAACACACGUUGUGGUAUAUCACCUGGUA, which self-cleavage is on record?
**A.** 0.191

**Q.** Which self-cleavage does the source give for GUCUUCUUUCACGUGCGCGUGAAAGAGAGAAGUGAACCAGAGAAACACACGUUGUGGUAUAUAACCUGGUA here?
**A.** 0.157

**Q.** For GUCUUCUUUCACGUGCGCGUGAAAGAGAGAAGUGAACCAGAGAAACGCACGUUGUGGUAUAUUACCUGGUA, which self-cleavage is on record?
**A.** 0.0924

**Q.** For GUCCACUUUCACGUGCGCGUGAAAGAGGGAAGUGAACCAGAGAAACACACGUUGUGGUAUAUUACCUGGUA, which self-cleavage is on record?
**A.** 0.471

**Q.** Which self-cleavage does the source give for GUCCACUUUCACGUGCGCGUGAAAGAGCGAAGUGAACCAGAGAAACACACGUUGUGGUAUAUUACCUGGUA here?
**A.** 0.297

**Q.** For GUCCACUUUCACGUGCGCGUGAAAGAGUGAAGUGAACCAGAGAAACACACGUUGUGGUAUAUUACCUGGUA, which self-cleavage is on record?
**A.** 0.126

**Q.** For GUCUUCUUUCACGUGCGCGUGAAAGAGAGAAGUGAACCGGAGAAACACACGUUGUGGUAUAUUACCUGGUA, which self-cleavage is on record?
**A.** 0.122

**Q.** With GUCUUCUUUCACGUGCGCGUGAAAGAGAGAAGUGAACCCGAGAAACACACGUUGUGGUAUAUUACCUGGUA as the variant, how does the self-cleavage read?
**A.** 0.251

**Q.** For GUCUUCUUUCACGUGCGCGUGAAAGAGAGAAGUGAACCAGAGAAACACACGUUUUGGUAUAUUACCUGGUA, which self-cleavage is on record?
**A.** 0.198

**Q.** Which self-cleavage does the source give for GUCUUCUUUCACGUGCGCGUGAAAGAGAGAAGUGAACCAGAGAAACACACGUUGUGGUAUAUUACCUGGUC here?
**A.** 0.622

**Q.** For GUCCACUUUCACGUGCGCGUGAAAGAGAGUAGUGAACCAGAGAAACACACGUUGUGGUAUAUUACCUGGUA, which self-cleavage is on record?
**A.** 0.263

**Q.** With GUCCACUUUCACGUGCGCGUGAAAGAGAGGAGUGAACCAGAGAAACACACGUUGUGGUAUAUUACCUGGUA as the variant, how does the self-cleavage read?
**A.** 0.119

**Q.** For GUCUUCUUUCACGUGCGCGUGAAAGAGAGAAGUGAACCAGAGAAACACACCUUGUGGUAUAUUACCUGGUA, which self-cleavage is on record?
**A.** 0.337

**Q.** Which self-cleavage does the source give for GUCCACUUUCACGUGCGCGUGGAAGAGAGAAGUGAACCAGAGAAACACACGUUGUGGUAUAUUACCUGGUA here?
**A.** 0.308

**Q.** Which self-cleavage does the source give for GUCCACUUUCACGUGCGCGUGCAAGAGAGAAGUGAACCAGAGAAACACACGUUGUGGUAUAUUACCUGGUA here?
**A.** 0.339

**Q.** With GUCUUCUUUCACGUGCGCGUGAAAUAGAGAAGUGAACCAGAGAAACACACGUUGUGGUAUAUUACCUGGUA as the variant, how does the self-cleavage read?
**A.** 0.126

**Q.** For GUCUUCUUUCACGUGCGCGUGAAACAGAGAAGUGAACCAGAGAAACACACGUUGUGGUAUAUUACCUGGUA, which self-cleavage is on record?
**A.** 0.11

**Q.** Which self-cleavage does the source give for GUCUUCUUUCACGUGCGCGUGAAAGAGAGAAGUGAACCAGAGAAACACACGUUGCGGUAUAUUACCUGGUA here?
**A.** 0.093

**Q.** Which self-cleavage does the source give for GUCUUCUUUCACGUGCUCGUGAAAGAGAGAAGUGAACCAGAGAAACACACGUUGUGGUAUAUUACCUGGUA here?
**A.** 0.313

**Q.** For GUCUUCUUUCACGUGCCCGUGAAAGAGAGAAGUGAACCAGAGAAACACACGUUGUGGUAUAUUACCUGGUA, which self-cleavage is on record?
**A.** 0.266

**Q.** Which self-cleavage does the source give for GUCUUCUUUCACGUGCGCGUGAAAGAGAGAAGUGAACCAGAGAAACACACGUUGUGGCAUAUUACCUGGUA here?
**A.** 0.495

**Q.** For GUCUUCUUUCACGUGCGCGUGAAAGAGAGAAGUGAACCAGAGAAACACACGUUGUGGUAUAUUACCUGCUA, which self-cleavage is on record?
**A.** 0.204

**Q.** For GUCUUCUUUCACGUGCGCGUGAAAGAGAGAAGUGAACCAGAGAAACACACGUUGUGGUAUAUUACCUGAUA, which self-cleavage is on record?
**A.** 0.12

**Q.** For GUCUUCUUUCACGUGCGCGUGAAAGAGAGAAGUGAACCAGAGCAACACACGUUGUGGUAUAUUACCUGGUA, which self-cleavage is on record?
**A.** 0.128

**Q.** Which self-cleavage does the source give for GUCUUCUUUCACGUGCGCGUGAAAGAGAGAAGUGAACCAGAGAAACACACGUUGUGGUAUAUUACCUGGGA here?
**A.** 0.214

**Q.** Which self-cleavage does the source give for GUCUUCUUUCACGUGCGCGUGAAUGAGAGAAGUGAACCAGAGAAACACACGUUGUGGUAUAUUACCUGGUA here?
**A.** 0.295

**Q.** For GUCCACUUUCACGUGCGCGUGAAAGGGAGAAGUGAACCAGAGAAACACACGUUGUGGUAUAUUACCUGGUA, which self-cleavage is on record?
**A.** 0.244

**Q.** Which self-cleavage does the source give for GUCUUCUUUCACGUGCGCGUGAAAGAGAGAAGUGAAGCAGAGAAACACACGUUGUGGUAUAUUACCUGGUA here?
**A.** 0.147

**Q.** For GUCUUCUUUCACGUGCGCGUGAAAGAGACAAGUGAACCAGAGAAACACACGUUGUGGUAUAUUACCUGGUA, which self-cleavage is on record?
**A.** 0.108
